Measurements: patent US20030088057

## γ-PAK activated by limited digestion with trypsin
ARKASAA
  32P incorporated, proteolytically activated (pmol min^-1 µg^-1): 16
  rel rate (%), proteolytically activated (KKRKSAA = 100): 6%
AAKKSAA
  32P incorporated, proteolytically activated (pmol min^-1 µg^-1): 0
  rel rate (%), proteolytically activated (KKRKSAA = 100): 0%
AKAASAA
  32P incorporated, proteolytically activated (pmol min^-1 µg^-1): 5
  rel rate (%), proteolytically activated (KKRKSAA = 100): 2%
PKRASAA
  32P incorporated, proteolytically activated (pmol min^-1 µg^-1): 636
  rel rate (%), proteolytically activated (KKRKSAA = 100): 209%
ARRASAA
  32P incorporated, proteolytically activated (pmol min^-1 µg^-1): 391
  rel rate (%), proteolytically activated (KKRKSAA = 100): 129%
AKRGSAA
  32P incorporated, proteolytically activated (pmol min^-1 µg^-1): 381
  rel rate (%), proteolytically activated (KKRKSAA = 100): 126%
RKKKSAA
  32P incorporated, proteolytically activated (pmol min^-1 µg^-1): 0
  rel rate (%), proteolytically activated (KKRKSAA = 100): 0%
KKRKSAA
  32P incorporated, proteolytically activated (pmol min^-1 µg^-1): 302
  rel rate (%), proteolytically activated (KKRKSAA = 100): 100%
AKRASPA
  32P incorporated, proteolytically activated (pmol min^-1 µg^-1): 0
  rel rate (%), proteolytically activated (KKRKSAA = 100): 0%
AKRPSAA
  32P incorporated, proteolytically activated (pmol min^-1 µg^-1): 16
  rel rate (%), proteolytically activated (KKRKSAA = 100): 6%
AKRASAA
  32P incorporated, proteolytically activated (pmol min^-1 µg^-1): 426
  rel rate (%), proteolytically activated (KKRKSAA = 100): 141%
KKAASAA
  32P incorporated, proteolytically activated (pmol min^-1 µg^-1): 0
  rel rate (%), proteolytically activated (KKRKSAA = 100): 0%
KKRASAA
  32P incorporated, proteolytically activated (pmol min^-1 µg^-1): 586
  rel rate (%), proteolytically activated (KKRKSAA = 100): 193%
AAKRSAA
  32P incorporated, proteolytically activated (pmol min^-1 µg^-1): 0
  rel rate (%), proteolytically activated (KKRKSAA = 100): 0%
AKRKSAA
  32P incorporated, proteolytically activated (pmol min^-1 µg^-1): 548
  rel rate (%), proteolytically activated (KKRKSAA = 100): 181%
AKRESAA
  32P incorporated, proteolytically activated (pmol min^-1 µg^-1): 750
  rate of phosphorylation relative to AKRASAA: increased the rate of phosphorylation relative to AKRASAA (SEQ ID NO:6) to 175 and 113%, respectively
  rel rate (%), proteolytically activated (KKRKSAA = 100): 247%
AAAASKR
  32P incorporated, proteolytically activated (pmol min^-1 µg^-1): 0
  rel rate (%), proteolytically activated (KKRKSAA = 100): 0%
AARASAA
  32P incorporated, proteolytically activated (pmol min^-1 µg^-1): 169
  rate of phosphorylation relative to AKRASAA: significantly slower rate (40 and 56%) as compared to AKRASAA (SEQ ID NO:6) and KKRKSAA (SEQ ID NO:8), respectively
  rel rate (%), proteolytically activated (KKRKSAA = 100): 56%
EKRASAA
  32P incorporated, proteolytically activated (pmol min^-1 µg^-1): 484
  rate of phosphorylation relative to AKRASAA: increased the rate of phosphorylation relative to AKRASAA (SEQ ID NO:6) to 175 and 113%, respectively
  rel rate (%), proteolytically activated (KKRKSAA = 100): 160%
AKRASGA
  32P incorporated, proteolytically activated (pmol min^-1 µg^-1): 324
  rel rate (%), proteolytically activated (KKRKSAA = 100): 107%
AKRASEA
  32P incorporated, proteolytically activated (pmol min^-1 µg^-1): 326
  rate of phosphorylation relative to AKRASAA: a glutamate residue in the +1 position decreased the rate to 71%
  rel rate (%), proteolytically activated (KKRKSAA = 100): 108%

## Protein kinase C purified from bovine brain
ARKASAA
  32P incorporated: 5.7 pmol/unit
  32P incorporated, % (AKRASAA = 100): 173%
PKRASAA
  32P incorporated: 8.7 pmol/unit
  32P incorporated, % (AKRASAA = 100): 264%
ARRASAA
  32P incorporated: 18.8 pmol/unit
  32P incorporated, % (AKRASAA = 100): 570%
RKKKSAA
  32P incorporated: 3.1 pmol/unit
  32P incorporated, % (AKRASAA = 100): 94%
KKRKSAA
  32P incorporated: 11.1 pmol/unit
  32P incorporated, % (AKRASAA = 100): 370%
AKRPSAA
  32P incorporated: 3.9 pmol/unit
  32P incorporated, % (AKRASAA = 100): 118%
AKRASAA
  32P incorporated: 3 pmol/unit
  32P incorporated, % (AKRASAA = 100): 100%
AKRESAA
  32P incorporated: 0.4 pmol/unit
  32P incorporated, % (AKRASAA = 100): 12%
AAAASKR
  32P incorporated: 13.3 pmol/unit
  32P incorporated, % (AKRASAA = 100): 403%
EKRASAA
  32P incorporated: 0.1 pmol/unit
  32P incorporated, % (AKRASAA = 100): 3%
AKRASEA
  32P incorporated: 0.2 pmol/unit
  32P incorporated, % (AKRASAA = 100): 6%
